Test results taken from US6835378B2, “Method and compositions for inhibiting thrombin-induced coagulation” (The Texas A&M University System University, priority 2001, dated 2004).

Molecular target: T1, immobilized Fg (Homo sapiens, UniProt P02675)
T1 construct: purchased Enzyme Research Labs
T1 sequence (P02675 31-491): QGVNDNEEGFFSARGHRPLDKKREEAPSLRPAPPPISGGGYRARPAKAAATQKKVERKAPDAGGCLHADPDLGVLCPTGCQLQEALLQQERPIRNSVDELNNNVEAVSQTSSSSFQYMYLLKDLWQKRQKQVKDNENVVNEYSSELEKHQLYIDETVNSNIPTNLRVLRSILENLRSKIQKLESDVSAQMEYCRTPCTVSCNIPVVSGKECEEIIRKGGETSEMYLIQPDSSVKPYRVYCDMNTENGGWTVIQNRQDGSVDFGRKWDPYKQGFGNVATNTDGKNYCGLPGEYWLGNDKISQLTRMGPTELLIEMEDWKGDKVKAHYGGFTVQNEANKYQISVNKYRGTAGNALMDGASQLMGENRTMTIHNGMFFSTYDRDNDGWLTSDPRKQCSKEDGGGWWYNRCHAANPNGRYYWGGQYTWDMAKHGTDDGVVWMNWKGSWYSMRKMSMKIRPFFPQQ
T1 sequence (P02671 20-629 partner limits assumed): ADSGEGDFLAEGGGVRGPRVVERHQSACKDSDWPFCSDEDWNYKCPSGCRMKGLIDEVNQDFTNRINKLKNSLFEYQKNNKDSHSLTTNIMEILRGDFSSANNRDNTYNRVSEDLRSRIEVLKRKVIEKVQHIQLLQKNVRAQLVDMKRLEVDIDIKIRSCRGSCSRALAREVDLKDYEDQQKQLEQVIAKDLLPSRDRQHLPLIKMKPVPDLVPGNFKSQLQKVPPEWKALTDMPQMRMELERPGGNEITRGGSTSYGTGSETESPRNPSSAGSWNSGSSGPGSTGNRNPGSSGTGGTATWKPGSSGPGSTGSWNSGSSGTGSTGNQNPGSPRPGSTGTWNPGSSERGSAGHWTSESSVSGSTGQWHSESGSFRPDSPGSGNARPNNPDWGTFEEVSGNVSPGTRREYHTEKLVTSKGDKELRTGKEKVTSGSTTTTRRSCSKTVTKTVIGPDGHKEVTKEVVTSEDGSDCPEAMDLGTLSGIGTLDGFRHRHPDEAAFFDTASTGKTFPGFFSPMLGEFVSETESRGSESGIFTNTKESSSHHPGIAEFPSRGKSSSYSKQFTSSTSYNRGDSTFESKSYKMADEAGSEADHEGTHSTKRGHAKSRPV
T1 sequence (P02679 27-433 partner limits assumed): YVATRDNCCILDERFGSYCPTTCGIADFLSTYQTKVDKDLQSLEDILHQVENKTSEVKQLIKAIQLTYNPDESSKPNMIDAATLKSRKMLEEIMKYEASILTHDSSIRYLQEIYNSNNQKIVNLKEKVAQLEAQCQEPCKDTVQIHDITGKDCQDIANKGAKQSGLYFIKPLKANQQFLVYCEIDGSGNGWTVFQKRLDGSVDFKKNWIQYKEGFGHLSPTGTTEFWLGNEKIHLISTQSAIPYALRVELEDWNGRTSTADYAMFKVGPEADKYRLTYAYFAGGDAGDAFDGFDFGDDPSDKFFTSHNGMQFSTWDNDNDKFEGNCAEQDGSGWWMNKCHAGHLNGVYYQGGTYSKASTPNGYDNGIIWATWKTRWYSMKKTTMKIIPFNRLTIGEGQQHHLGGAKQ
Assay: ELISA: rSdrG(50-597) binding to immobilized Fg
Experimental: ELISA—Microtiter plates (Immulon 4, Dynatech Laboratories Inc.) were coated with 1 μg of Fg (Enzyme Research Labs) in PBS, pH 7.5 for 18 h at 4° C. Plates were washed three times with PBS, 0.05% Tween 20 (PBST) and blocked with 1% (w/v) bovine serum albumin (BSA) for 1 h at room temperature. Plates were washed three times with PBST and rSdrG(50-597), diluted into PBS, was added to the wells and the plate was incubated for 1 h at room temperature. Plates were washed three times with PBST and bound rSdrG(50-597) was detected by adding a 1:2000 dilution of an anti-His-tag mAb (Clontech) in PBST, 0.1% BSA. Plates were incubated for 1 h at room temperature and then washed three times with PBST. A 1:2000 dilution of goat anti-mouse alkaline phosphatase (AP)-conjugated polyclonal antibodies (Bio-Rad) in PBST, 0.1% BSA were added to the wells and the plate was incubated for 1 h at room temperature. Plates were washed three times with PBST and developed with p-nitrophenyl phosphate (Sigma) in 1 M diethanolamine, 0.5 mM MgCl2, pH 9.0 at room temperature for ˜30 min. Plates were read at 405 nm using an ELISA plate reader (Thermomax microplate reader, Molecular Devices).

B1: rSdrG(50-597): recombinant His-tagged A region (residues 50-597) of SdrG, a fibrinogen-binding MSCRAMM from S. epidermidis (protein)
chain: HHHHHHAEENTVQDVKDSNMDDELSDSNDQSSNEEKNDVINNSQSINTDDDNQIKKEETNSNDAIENRSKDITQSTTNVDENEATFLQKTPQDNTQLKEEVVKEPSSVESSNSSMDTAQQPSHTTINSEASIQTSDNEENSRVSDFANSKIIESNTESNKEENTIEQPNKVREDSITSQPSSYKNIDEKISNQDELLNLPINEYENKVRPLSTTSAQPSSKRVTVNQLAAEQGSNVNHLIKVTDQSITEGYDDSDGIIKAHDAENLIYDVTFEVDDKVKSGDTMTVNIDKNTVPSDLTDSFAIPKIKDNSGEIIATGTYDNTNKQITYTFTDYVDKYENIKAHLKLTSYIDKSKVPNNNTKLDVEYKTALSSVNKTITVEYQKPNENRTANLQSMFTNIDTKNHTVEQTIYINPLRYSAKETNVNISGNGDEGSTIIDDSTIIKVYKVGDNQNLPDSNRIYDYSEYEDVTNDDYAQLGNNNDVNINFGNIDSPYIIKVISKYDPNKDDYTTIQQTVTMQTTINEYTGEFRTASYDNTIAFSTSSGQGQGDLPPE
- binding to immobilized Fg: bound immobilized Fg
